From publication PMC4497409

Target: T1, Norrin (Norrie Disease Protein), recombinant wild-type after removal of the SUMO fusion tag (human), Q00604
T1 chain: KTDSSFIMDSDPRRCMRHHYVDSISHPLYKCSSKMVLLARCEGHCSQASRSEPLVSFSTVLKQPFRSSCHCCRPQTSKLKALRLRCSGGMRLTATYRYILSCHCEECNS
Assay: SAXS; Norrin at 0.75 and 1.26 mg/ml in 10 mM HEPES, pH 7.5, 0.7 M NaCl, 0.5% CHAPS; 293 K
Conditions: remark: other sources report otherwise

stoichiometry N: 2
B1: Norrin (Norrie Disease Protein), recombinant wild-type after removal of the SUMO fusion tag, Q00604 25-133 (ligand)
chain: KTDSSFIMDSDPRRCMRHHYVDSISHPLYKCSSKMVLLARCEGHCSQASRSEPLVSFSTVLKQPFRSSCHCCRPQTSKLKALRLRCSGGMRLTATYRYILSCHCEECNS
